Results taken from patent US20210171652A1 (University of Pennsylvania, published 2021).
Positions count from the first letter of the chain named.

T1: Band 3 / glycophorin A (Wright b, Wrb epitope) on human red blood cells (human, UniProt P02724 20-150)
T1 construct: whole, on cells; also called Band3/GPA; AE1
T1 sequence 1: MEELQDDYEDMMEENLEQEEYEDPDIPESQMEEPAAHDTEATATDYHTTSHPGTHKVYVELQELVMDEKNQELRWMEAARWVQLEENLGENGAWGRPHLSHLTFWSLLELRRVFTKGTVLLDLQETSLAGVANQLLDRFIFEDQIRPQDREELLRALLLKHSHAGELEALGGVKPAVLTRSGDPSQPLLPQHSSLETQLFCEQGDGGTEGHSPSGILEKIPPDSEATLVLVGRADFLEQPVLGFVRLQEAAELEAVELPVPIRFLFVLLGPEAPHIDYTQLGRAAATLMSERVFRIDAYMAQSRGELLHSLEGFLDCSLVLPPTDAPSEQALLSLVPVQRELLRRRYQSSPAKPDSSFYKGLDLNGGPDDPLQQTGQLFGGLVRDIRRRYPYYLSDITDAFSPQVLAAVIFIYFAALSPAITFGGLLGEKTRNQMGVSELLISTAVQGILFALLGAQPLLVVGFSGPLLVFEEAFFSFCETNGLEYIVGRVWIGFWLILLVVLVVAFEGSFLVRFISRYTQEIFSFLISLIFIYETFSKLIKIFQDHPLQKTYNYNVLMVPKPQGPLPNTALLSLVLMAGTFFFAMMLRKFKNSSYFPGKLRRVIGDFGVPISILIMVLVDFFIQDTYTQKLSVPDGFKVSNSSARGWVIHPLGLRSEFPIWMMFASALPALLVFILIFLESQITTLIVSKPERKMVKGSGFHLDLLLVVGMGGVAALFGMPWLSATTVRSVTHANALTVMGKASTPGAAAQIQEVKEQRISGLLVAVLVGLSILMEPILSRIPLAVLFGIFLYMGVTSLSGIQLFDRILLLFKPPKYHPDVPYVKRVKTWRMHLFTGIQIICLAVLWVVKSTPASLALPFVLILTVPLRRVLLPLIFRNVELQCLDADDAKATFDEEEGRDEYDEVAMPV
T1 sequence 2: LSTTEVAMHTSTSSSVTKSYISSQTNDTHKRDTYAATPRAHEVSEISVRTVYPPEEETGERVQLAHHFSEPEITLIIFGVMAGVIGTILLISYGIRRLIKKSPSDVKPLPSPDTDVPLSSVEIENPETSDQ

B1: KP2-01 Fab/phage clone (anti-Band 3, Wrb) (Fab, V domains shown)
VH: EVQLLESGPGLVKPSETLSLTCAVSGDSISSGLGWSWIRQTPGKGLEWIGYIGGSRGNTNYNPSFKSRVTISRDTSKNQFSLRLSSMTAADTAVYYCARRAPYWGYSYLDYWGQGVLVTVSS
VL: AAELTQSPATLSLSPGETATLSCRASQSIGSSLAWYQQRPGQAPKLLVHSAYFRAAGIPDRFSGSGSRTDFTLTISSLEPEDVGVYHCQQYNDLLPLTFGGGTKVELK
B2: KP2-02 Fab/phage clone (anti-Band 3, Wrb) (Fab, V domains shown)
VH: EVQLLESGPGLVKPSETLSLTCAVSGGSLSGGYDWSWIRQSSRKGLEWIGYIYDSRWTTNYNPSLKKRVTISIDTSKNQFSLNLKSVTAADTAVYYCARRGGYGASYFDLWGQGVLVTVSS
VL: B1 VL with S14F, S32H, R39K, A51V, Y52S, A56T, S63R, L107I
B3: KP3-13 Fab/phage clone (anti-Band 3, Wrb) (Fab, V domains shown)
VH: B2 VH with K13R, S42P, W57G, K67R
VL: B1 VL with I29V, S32N, R39K, Y52S, F53V, A56T, L94F, L95F, L107I
B4: KP2-04 Fab/phage clone (anti-Band 3, Wrb) (Fab, V domains shown)
VH: EVQLLESGPGLVKPSETLSLTCAVSGYSLSSAYGWNWIRQSPGKGLEWIGSIGGSRDNVNYNPSLKRRVTISKDTSTNHFSLRLSSVTAADTAVYYCVRRATYGNSYFDSWGQGVQVTVSS
VL: B1 VL with A1E, A2L, E3T, I29V, S32H, R39K, A56T, L107I
B5: KP3-18 Fab/phage clone (anti-Band 3, Wrb) (Fab, V domains shown)
VH: B4 VH with S7W
VL: B1 VL with A1E, A2L, E3T, I29V, S32Y, R39K, Y52H, A56T, L107I
B6: KP3-05 Fab/phage clone (anti-Band 3, Wrb) (Fab, V domains shown)
VH: EVQLLESGPGLVKPSETLSLTCTVSGSSLSSAYGWNWIRQPPGKGLEWIGSIGGSRDNTNYNPSLKRRVTISKDTSKNQFSLKLKSVTAADTAVYYCAQRGAYGYSYFDYWGQGVLVAVSS
VL: B1 VL with I29V, R39K, A56T, Q89H, L107I
B7: KP2-06 Fab/phage clone (anti-Band 3, Wrb) (Fab, V domains shown)
VH: B6 VH
VL: B1 VL with I29V, R39K, A51I, Y52S, F53V, A56T, S76T, L94F, L95F, L107I
B8: KP3-15 Fab/phage clone (anti-Band 3, Wrb) (Fab, V domains shown)
VH: B6 VH with S55N
VL: AAELTQSPATLSVSPGEAATLSCRASQTVGRNLAWYQQKPGQAPKLLVHSAHFRATGIPDRFSGSGSGTDFTLTISSLEPEDAGIYHCQQYNDLLPLTFGGGTKVEIK
B9: KP3-16 Fab/phage clone (anti-Band 3, Wrb) (Fab, V domains shown)
VH: B6 VH
VL: AAELTQSPATLSLSPGETATLSCRASQSLGSRLAWYQQKPGQAPRLLIYGASTRATGIPDRFSGSGSRTDFTLTISSLEPEDVGVYHCQQYNDFLPLTFGGGTKVEIK
B10: KP2-07 Fab/phage clone (anti-Band 3, Wrb) (Fab, V domains shown)
VH: EVQLLESGPGLVKPSETLSLTCAVSGDSISSGYGWHWIRQVPGRGLEWIGSIGGSRGTTNYNPSLKSRVTISEDTSKNQFSLSLRSVSAADTAVYFCARDSGYSFRYFDFWGQGVLVTVSS
VL: B1 VL with A1E, A2L, E3V, L4M, I29V, S32N, R39K, A56T, L107I, K108N
B11: KP2-08 Fab/phage clone (anti-Band 3, Wrb) (Fab, V domains shown)
VH: EVQLLESGPGLVKPSETLSLTCAVSGYSISSGYGWNWIRQPPGKGLEWIGSIGGSRDNTNYNPSLKSRVTLSKDTSKNHFSLRLRSVTAADTAVYYCARDGGYGSRYMDSWGQGVLVAVSS
VL: B1 VL with T18A, S31T, R39K, K45R, A56T, P59A, H87Y, L107I
B12: KP2-09 Fab/phage clone (anti-Band 3, Wrb) (Fab, V domains shown)
VH: EVQLLESGPGLVRPSETLSLTCAVSGYSISSGYGWHWIRQPPGKGLESLGYIGGSRGNTNYNPSLKSRVTISTDTSKNQFSLKLRSVTAADTAVYYCARDSGYNTRYFDYWGQGVLVTVSS
VL: B9 VL with T18R, L29V, T53S, F94L
B13: KP3-02 Fab/phage clone (anti-Band 3, Wrb) (Fab, V domains shown)
VH: B12 VH
VL: B1 VL with I29V, S32N, R39K, A56T, L107I
B14: KP2-11 Fab/phage clone (anti-Band 3, Wrb) (Fab, V domains shown)
VH: B6 VH with L5Q, E6L, S7P
VL: B9 VL with A1E, A2L, E3T, A43P, L95P
B15: KP3-08 Fab/phage clone (anti-Band 3, Wrb) (Fab, V domains shown)
VH: B6 VH
VL: B9 VL with A1E, A2L, E3T, S31G, D70E, S76A, S77G
B16: KP2-13 Fab/phage clone (anti-Band 3, Wrb) (Fab, V domains shown)
VH: EVQLLESGPGLVKPSETLSLTCAVSGGSISGGYDWSWIRQSPGKGLEWIGYIYDSRGTTNYNPSLRKRVAISIDTSRNQFSLNLRSLTAADTAVYYCARRAGYGSAYFDYWGQGVLVTVSS
VL: AAELTQSPATLSLAPGETATLSCRASQSIGTNLAWYHQKPGQPPKLLVHTAYVRATGIPNRFSGSGSRTDFTLTINSLQPEDVGVYHCQQYNDLLPLTFGGGTKIDIK
B17: KP2-14 Fab/phage clone (anti-Band 3, Wrb) (Fab, V domains shown)
VH: EVQLLESGPGLVKPSETLSLTCAVSGSSLSSAYGWNWIRQAPGKRLEWIGFIGGSRDNTNYNPSLRSRVTISKDTSKNHFSLKLTSVTAADTAVYFCARRGAFGNSYFDYWGQGVPVTVSS
VL: B1 VL with Q27E, I29V, Q37H, R39K, K45R, Y52S, A56T, D70E, I75V, L107I
B18: KP2-15 Fab/phage clone (anti-Band 3, Wrb) (Fab, V domains shown)
VH: B16 VH with A70T, N83K
VL: B8 VL
B19: KP2-20 Fab/phage clone (anti-Band 3, Wrb) (Fab, V domains shown)
VH: B16 VH with A70T, N83K
VL: B1 VL with I29V, S32N, R39K, A51G, Y52S, F53V, A56T, T74I, L107I

target: T1, Band 3 / glycophorin A (Wright b, Wrb …); test: Fab/phage binding assays on human RBCs incl. rare RBC types lacking conserved antigens
Description: An IgG Fab/phage display library was prepared from the peripheral blood lymphocytes of a hyperimmunized macaque using homologous human V-region oligonucleotides (Siegel D L, R. M., Lee H, Blancher A., Production of large repertories of macaque mAbs to human RBCs using phage display. Transfusion, 1999. 39(S10): p. 92S, which is incorporated herein by reference). Fab/phage specific for human RBCs were isolated by panning on intact human RBCs. Monoclonal Fab/phage were grown to produce antibodies for immunoassays and their corresponding DNA was extracted for sequencing. To identify target epitopes, antibodies were screened against RBCs of known serologic phenotypes, including rare cells lacking highly conserved antigens, using standard immunohematologic techniques (Roback, J. D., Technical Manual. 2014: American Association of Blood Banks (AABB), which is incorporated herein by reference.)
Using antibody phage display, we identified non-human-primate Fab antibody fragments to antigenic determinants on human RBCs. By panning phage libraries on human RBCs, we produced a Fab/phage preparation with >10⁷ RBC-specific clones capable of agglutinating human RBCs. By performing binding assays against rare RBC types lacking highly conserved antigens and epitopes, we identified the target antigens of >30 of these clones. At least 34 clones bound the Wright b (Wrb) epitope formed by a Band 3/GPA interaction, present on the RBCs of essentially 100% of the human population. The Wrb epitope, determined by the protein sequence of Band 3, is a site of association between Band 3 with GPA, and GPA expression is simultaneously required for its presence on the membrane (Huang C H, Reid M E, Xie S S, Blumenfeld 00. Human red blood cell Wright antigens: a genetic and evolutionary perspective on glycophorin A-band 3 interaction. Blood. 1996; 87(9):3942-3947). At least 3 other clones bound to a highly-conserved epitope Rh17(Hr0) on human RhCE protein, also present on essentially 100% of the human population. Both these targets are specific for erythroid lineage (Rojewski M T, Schrezenmeier H, Flegel W A. Tissue distribution of blood group membrane proteins beyond red cells: evidence from cDNA libraries. Transfus Apher Sci.

Binder | binding result
B1 | binds
B2 | binds
B3 | binds
B4 | binds
B5 | binds
B6 | binds
B7 | binds
B8 | binds
B9 | binds
B10 | binds
B11 | binds
B12 | binds
B13 | binds
B14 | binds
B15 | binds
B16 | binds
B17 | binds
B18 | binds
B19 | binds
